± gives the uncertainty stated by the source.
Assay: protein stability index of a GFP-peptide fusion (yeast GPS) (PSI 1-4); higher = more stable; sorted into four equal gates, so the index is relative within each strain
Procedure, shortened: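 Each library plasmid carries Cherry plus GFP with a tiled 17-residue yeast protein peptide fused downstream, and the pooled library was carried in yeast. Mid-log cultures in leucine-free medium were sorted into four equal gates by GFP/Cherry ratio. Reads from Illumina sequencing of PCR-amplified plasmids from each gate were assigned to strains by barcodes. Per peptide, the protein stability index was computed as the summed products of gate read frequency and gate number.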

| Sequence | protein stability index (doa10∆) | protein stability index (pdr5∆) | protein stability index (san1∆) | protein stability index (ubr1∆) |
| --- | --- | --- | --- | --- |
| NLENHFKKSKIDHINEE [SCL1] | 2.74 ± 0.072 | 3.16 ± 0.075 | 2.64 ± 0.065 | 2.58 ± 0.047 |
| NLETLVTTKDDLSGADI [RPT2] | 3.15 ± 0.067 | 3.34 ± 0.085 | 3.27 ± 0.037 | 3.34 ± 0.057 |
| NLGSNVRNSFPLDEIPV [REC8] | 2.95 ± 0.074 | 2.98 ± 0.13 | 2.88 ± 0.087 | 3.06 ± 0.058 |
| NLGSRTKNNTQASGITA [SSN3] | 2.44 ± 0.065 | 2.38 ± 0.045 | 2.18 ± 0.054 | 2.65 ± 0.043 |
| NLINLSIGASIADLASL [YCS4] | 2.45 ± 0.055 | 2.44 ± 0.052 | 2.39 ± 0.071 | 2.69 ± 0.042 |
| NLKLISVSLVDEFPSEL [SIR4] | 2.57 ± 0.061 | 2.6 ± 0.052 | 2.5 ± 0.06 | 2.6 ± 0.033 |
| NLLESITKLLEINLSKI [YCS4] | 2.73 ± 0.057 | 2.55 ± 0.043 | 2.94 ± 0.036 | 2.77 ± 0.034 |
| NLLLRELNVEKLNTFNL [SRP72] | 2.71 ± 0.15 | 3.41 ± 0.2 | 2.95 ± 0.099 | 2.95 ± 0.13 |
| NLLSKRNQEKKMEKKKS [SNM1] | 3.09 ± 0.16 | 3.38 ± 0.28 | – | – |
| NLNELESQLQMDRTSLR [SMC3] | 2.57 ± 0.15 | 2.59 ± 0.16 | 2.5 ± 0.22 | – |
| NLNRAFNGDQVIVELLP [DIS3] | 3.17 ± 0.11 | 2.92 ± 0.18 | – | 3.45 ± 0.15 |
| NLQTVHFGHCFNITDNG [GRR1] | 1.22 ± 0.091 | – | – | – |
| NLSEARLVIKEALVERR [RPB4] | 3.33 ± 0.28 | 2.75 ± 0.13 | 2.83 ± 0.21 | 3.3 ± 0.13 |
| NLSIDEVAVPDRVAKVL [RPO31] | 3.09 ± 0.076 | 3.05 ± 0.073 | 3.11 ± 0.06 | 3.22 ± 0.045 |
| NLTAGIIVAGYDDKNKG [PRE3] | 2 ± 0.071 | 2.75 ± 0.096 | 2.53 ± 0.12 | 2.16 ± 0.077 |
| NNAKLLTFMTCNSLHIP [ESC2] | 1.71 ± 0.046 | 1.72 ± 0.052 | 1.6 ± 0.079 | 2.06 ± 0.047 |
| NNDADKGRSYAYFMVGA [RIP1] | 3.24 ± 0.11 | 3.32 ± 0.1 | 3.29 ± 0.084 | 3.07 ± 0.075 |
| NNEKVVQYLRSVQDLGG [YML031W/NDC1] | 3.1 ± 0.2 | 3.04 ± 0.27 | 3.44 ± 0.19 | 3.61 ± 0.24 |
| NNLFRIIAELSFLKVDP [YJL039C/NUP192] | 3.08 ± 0.054 | 3.02 ± 0.12 | 3.24 ± 0.093 | 3.07 ± 0.086 |
| NNMNVNMNLNPQMFLNQ [GAL11] | 2.14 ± 0.043 | 2.56 ± 0.046 | 2.46 ± 0.048 | 2.48 ± 0.035 |
| NNNHKDKKLLRRLLNLY [SWI1] | 2.88 ± 0.054 | 2.93 ± 0.054 | 2.92 ± 0.058 | 3.03 ± 0.054 |
| NNNNTNTQPSASGFGFG [YGR119C/NUP57] | 3.22 ± 0.081 | 2.28 ± 0.059 | 2.51 ± 0.062 | 2.89 ± 0.036 |
| NNNNTTTTTTTTNNNNT [SWI1] | 3.07 ± 0.031 | 2.68 ± 0.032 | 3.363 ± 0.023 | 3.128 ± 0.02 |
| NNSNTVASSTNFTSPTA [SWI1] | 2.82 ± 0.039 | 2.67 ± 0.039 | 2.86 ± 0.041 | 2.71 ± 0.033 |
| NNSSSGMNNASAGLFGS [YGL172W/NUP49] | 3.18 ± 0.084 | 3.08 ± 0.051 | 3.29 ± 0.036 | 3.35 ± 0.068 |
| NNSTSNANTVFSERAAM [SWI1] | 2.63 ± 0.06 | 3.27 ± 0.097 | 2.97 ± 0.062 | 3.24 ± 0.089 |
| NNVVINFKDMSHVNKYG [PRP8] | 2.64 ± 0.1 | 2.6 ± 0.079 | 2.75 ± 0.059 | 2.57 ± 0.075 |
